In the supplement of paper PMC7125110:
± gives the standard error. For part of these data: Fewer inactive variants are shown than the library holds.

B1: glmS ribozyme (parent)
chain: AUAAAAGCGCCAGAACUACAGAAAUGUAGUUGACGAGGAGGAGGUUUAUCGAAUUUUCGGCGGAUGCCUCCAAA

Tests used:
Details in all cases: with glucosamine-6-phosphate
glucosamine-6-phosphate [1] = variants of: B1; assay: kcat; higher = faster cleavage; RNA array
How it was run: (§1)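 Barcoded ribozyme variants, transcribed in situ by E. coli RNA polymerase on sequenced MiSeq chips, were followed via a hybridised Cy3 probe at 37 °C. Glucosamine-6-phosphate ranged from 40 μM to 10 mM in HEPES/KCl/Mg(OAc)2 buffer. kobs came from decay fits to per-tile medians, and kcat and KM from weighted Michaelis–Menten fits.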

glucosamine-6-phosphate [2] = variants of: B1; assay: self-cleavage kobs at 40 uM GlcN6P; higher = faster cleavage; RNA array
How it was run: as §1

glucosamine-6-phosphate [3] = variants of: B1; assay: KM; higher = weaker cofactor use; RNA array
How it was run: as §1

glucosamine-6-phosphate [4] = variants of: B1; assay: self-cleavage kobs at 640 uM GlcN6P; higher = faster cleavage; RNA array
How it was run: as §1

glucosamine-6-phosphate [5] = variants of: B1; assay: self-cleavage kobs at 2500 uM GlcN6P; higher = faster cleavage; RNA array
How it was run: as §1

glucosamine-6-phosphate [6] = variants of: B1; assay: self-cleavage kobs at 10000 uM GlcN6P; higher = faster cleavage; RNA array
How it was run: as §1

glucosamine-6-phosphate [7] = variants of: B1; assay: self-cleavage kobs at 160 uM GlcN6P; higher = faster cleavage; RNA array
How it was run: as §1

Row | Variant | kcat (glucosamine-6-phosphate [1]) | self-cleavage kobs at 40 uM GlcN6P (glucosamine-6-phosphate [2]) | KM (glucosamine-6-phosphate [3]) | self-cleavage kobs at 640 uM GlcN6P (glucosamine-6-phosphate [4]) | self-cleavage kobs at 2500 uM GlcN6P (glucosamine-6-phosphate [5]) | self-cleavage kobs at 10000 uM GlcN6P (glucosamine-6-phosphate [6]) | self-cleavage kobs at 160 uM GlcN6P (glucosamine-6-phosphate [7])
1 | U31C C50A | < 1e-05 s⁻¹ | < 1e-05 s⁻¹ |  |  |  |  | 
2 | G44A U54C | 0.00159 ± 0.00015 s⁻¹ |  | 8260 ± 990 µM | 0.000114 ± 1.7e-05 s⁻¹ | 0.000372 ± 6.7e-05 s⁻¹ | 0.000869 ± 0.00017 s⁻¹ | 
3 | U49C U69G | 1.6e-05 ± 5e-06 s⁻¹ |  |  |  |  |  | 
4 | U56A C58G | 0.000188 ± 1.8e-05 s⁻¹ |  | 1930 ± 470 µM | 4.15e-05 ± 9.1e-06 s⁻¹ | 0.000121 ± 1.6e-05 s⁻¹ | 0.000151 ± 1.7e-05 s⁻¹ | 
5 | C10A | < 1e-05 s⁻¹ |  | 559 ± 95 µM |  |  | < 1e-05 s⁻¹ | 
6 | U30G C58U | 5.55e-05 ± 8.1e-06 s⁻¹ |  |  |  |  | 4.54e-05 ± 1.6e-05 s⁻¹ | 
7 | C8A C71G | 1.09e-05 ± 3.7e-06 s⁻¹ |  |  |  |  |  | 
8 | A52G U69C | 0.000343 ± 3.8e-05 s⁻¹ |  | 425 ± 160 µM | 0.000215 ± 4.5e-05 s⁻¹ | 0.000269 ± 5.7e-05 s⁻¹ | 0.000381 ± 0.00011 s⁻¹ | 
9 | G37A A39U | 0.00167 ± 0.00028 s⁻¹ |  | 3280 ± 870 µM | 0.00028 ± 4e-05 s⁻¹ | 0.000838 ± 9.2e-05 s⁻¹ | 0.00116 ± 0.00015 s⁻¹ | 6.13e-05 ± 1.5e-05 s⁻¹
10 | U31C G40U | 0.000615 ± 0.00011 s⁻¹ |  | 2870 ± 920 µM | 0.000122 ± 2.1e-05 s⁻¹ | 0.000236 ± 4.1e-05 s⁻¹ | 0.000515 ± 6.3e-05 s⁻¹ | 4.05e-05 ± 1.4e-05 s⁻¹
11 | C11U A53U | 0.00137 ± 0.0004 s⁻¹ |  |  |  | 0.000587 ± 0.00017 s⁻¹ | 0.00125 ± 0.00023 s⁻¹ | 0.000141 ± 3.8e-05 s⁻¹
12 | G29A U46C | 0.00025 ± 1.1e-05 s⁻¹ |  | 1880 ± 160 µM | 6.39e-05 ± 2e-05 s⁻¹ | 0.000139 ± 3.1e-05 s⁻¹ | 0.000216 ± 6.1e-05 s⁻¹ | 
13 | U31C U45C | 0.0005 ± 0.0001 s⁻¹ |  | 4690 ± 1600 µM | 5.17e-05 ± 1.1e-05 s⁻¹ | 0.000213 ± 3.5e-05 s⁻¹ | 0.000327 ± 4.5e-05 s⁻¹ | 
14 | A36U U69A | 4.58e-05 ± 1.6e-05 s⁻¹ | 5.11e-05 ± 1.6e-05 s⁻¹ |  |  | 7.35e-05 ± 2.7e-05 s⁻¹ |  | 
15 | U30G U56C | 0.00111 ± 0.00035 s⁻¹ |  |  | 0.000359 ± 5.7e-05 s⁻¹ | 0.000454 ± 8.9e-05 s⁻¹ | 0.00109 ± 0.00017 s⁻¹ | 7.46e-05 ± 1.8e-05 s⁻¹
16 | U46G C50A | < 1e-05 s⁻¹ |  |  |  |  |  | < 1e-05 s⁻¹
17 | C16A A53G | 0.00159 ± 0.00057 s⁻¹ | 7.66e-05 ± 1.7e-05 s⁻¹ |  | 0.000374 ± 9.2e-05 s⁻¹ | 0.000777 ± 0.00017 s⁻¹ | 0.0017 ± 0.00029 s⁻¹ | 0.000134 ± 3.8e-05 s⁻¹

Row | Variant | kcat (glucosamine-6-phosphate [1]) | self-cleavage kobs at 40 uM GlcN6P (glucosamine-6-phosphate [2]) | KM (glucosamine-6-phosphate [3]) | self-cleavage kobs at 640 uM GlcN6P (glucosamine-6-phosphate [4]) | self-cleavage kobs at 2500 uM GlcN6P (glucosamine-6-phosphate [5]) | self-cleavage kobs at 10000 uM GlcN6P (glucosamine-6-phosphate [6]) | self-cleavage kobs at 160 uM GlcN6P (glucosamine-6-phosphate [7])
18 | U57C C70U | 0.00016 ± 1.8e-05 s⁻¹ |  | 741 ± 210 µM | 7.23e-05 ± 9.1e-06 s⁻¹ | 0.000137 ± 1.3e-05 s⁻¹ | 0.000124 ± 2.4e-05 s⁻¹ | 2.63e-05 ± 8.9e-06 s⁻¹
19 | A12G G32U C70U | 0.00103 ± 0.00043 s⁻¹ |  |  | 0.000285 ± 6.9e-05 s⁻¹ | 0.000425 ± 9e-05 s⁻¹ | 0.00121 ± 0.00019 s⁻¹ | 0.000103 ± 1.9e-05 s⁻¹
20 | G37A U47G U55G | 0.000459 ± 0.00013 s⁻¹ |  |  | 0.000101 ± 1.6e-05 s⁻¹ | 0.000183 ± 2.9e-05 s⁻¹ | 0.000412 ± 6.3e-05 s⁻¹ | 
21 | A14U U31C | 0.00342 ± 0.00056 s⁻¹ | 0.00012 ± 1.9e-05 s⁻¹ | 1450 ± 340 µM | 0.000956 ± 0.00011 s⁻¹ | 0.00229 ± 0.00027 s⁻¹ | 0.00303 ± 0.0006 s⁻¹ | 0.000327 ± 3.9e-05 s⁻¹
22 | G13U A52G | 7e-05 ± 5.1e-06 s⁻¹ | < 1e-05 s⁻¹ | 817 ± 370 µM |  | 6.21e-05 ± 1.3e-05 s⁻¹ | 6.34e-05 ± 7e-06 s⁻¹ | 
23 | A15U U46C | 0.000336 ± 2.6e-05 s⁻¹ |  | 1290 ± 210 µM | 0.000111 ± 1.1e-05 s⁻¹ | 0.000249 ± 3.3e-05 s⁻¹ | 0.000288 ± 2.9e-05 s⁻¹ | 2.98e-05 ± 1.3e-05 s⁻¹
24 | C61A C67U | 4.47e-05 ± 1.3e-05 s⁻¹ |  |  | 6.41e-05 ± 1.4e-05 s⁻¹ | 4.8e-05 ± 9.3e-06 s⁻¹ |  | 2.79e-05 ± 1.1e-05 s⁻¹
25 | G29U G41A | 0.000207 ± 3.7e-05 s⁻¹ | < 1e-05 s⁻¹ | 1480 ± 620 µM | 5.62e-05 ± 1.8e-05 s⁻¹ | 0.000155 ± 3.1e-05 s⁻¹ | 0.000164 ± 4e-05 s⁻¹ | 
26 | G41C C68U | < 1e-05 s⁻¹ | < 1e-05 s⁻¹ |  | < 1e-05 s⁻¹ |  |  | 
27 | C58G G66U | 1.05e-05 ± 2.2e-06 s⁻¹ |  |  |  |  |  | < 1e-05 s⁻¹
28 | G40C U45G | 0.000791 ± 0.00034 s⁻¹ |  |  | 0.000646 ± 0.00013 s⁻¹ | 0.000445 ± 7.5e-05 s⁻¹ | 0.00114 ± 0.00025 s⁻¹ | 9.8e-05 ± 1.7e-05 s⁻¹
29 | A15G A33C | 0.000368 ± 3.1e-05 s⁻¹ |  | 2210 ± 330 µM | 8.06e-05 ± 9.8e-06 s⁻¹ | 0.000213 ± 3e-05 s⁻¹ | 0.00029 ± 4.2e-05 s⁻¹ | 
30 | G13A U30G | 0.000441 ± 4.8e-05 s⁻¹ |  | 6050 ± 1100 µM | 3.9e-05 ± 1e-05 s⁻¹ | 0.000144 ± 3.3e-05 s⁻¹ | 0.000271 ± 3.9e-05 s⁻¹ | 
31 | A15U | 0.0104 ± 0.0019 s⁻¹ | 0.000227 ± 4e-06 s⁻¹ | 1950 ± 440 µM | 0.00245 ± 8.9e-05 s⁻¹ | 0.00682 ± 0.00026 s⁻¹ | 0.00847 ± 0.00024 s⁻¹ | 0.00061 ± 2.2e-05 s⁻¹
32 | C11U G66A | 0.000908 ± 0.00021 s⁻¹ |  | 2510 ± 1100 µM | 0.000205 ± 6e-05 s⁻¹ | 0.000661 ± 0.00015 s⁻¹ | 0.000673 ± 0.00012 s⁻¹ | 
33 | G66A C67U | 0.00255 ± 0.00091 s⁻¹ | 0.000173 ± 2.6e-05 s⁻¹ |  | 0.00134 ± 0.0002 s⁻¹ | 0.0016 ± 0.0003 s⁻¹ | 0.00498 ± 0.00098 s⁻¹ | 0.000398 ± 6.5e-05 s⁻¹
